Results as given in patent US20230143604A1, “QW DOSING OF GIP RECEPTOR AGONIST PEPTIDE COMPOUNDS AND USES THEREOF” (TAKEDA PHARMACEUTICAL COMPANY LIMITED, priority 2020, published 2023).
Starred links: 1 amine or outer side, 2 acyl side, 3 side chain; linkers in the order of their positions; H or OH if unused. Non-standard residues stand in square brackets, D forms with d. Groups on a side chain read outwards from the residue. No end group written: not given here. *: point of attachment. 2OEGgEgE‑C18 diacid = O=C(O)CCCCCCCCCCCCCCCCC(=O)N[C@@H](CCC(=O)N[C@@H](CCC(=O)NCCOCCOCC(=O)NCCOCCOCC(=O)*)C(=O)O)C(=O)O; C20 diacid = O=C(O)CCCCCCCCCCCCCCCCCCC(=O)*; C18 diacid = O=C(O)CCCCCCCCCCCCCCCCC(=O)*; γGlu = O=C(O)[C@H](CCC(=O)[*:2])N[*:1]; NMeY = CN[C@@H](Cc1ccc(O)cc1)C(=O)O; AEEA = NCCOCCOCC(=O)O; E∗ = not defined here; K∗ = not defined here; Aib = CC(C)(N)C(=O)O

B1: Compound No. 49 (peptide)
peptide: [NMeY][Aib]EGTFISDYSIALDR[Aib]K(2OEGgEgE‑C18 diacid)Q[Aib]DFVNWLLAQRG-OH
modifications: N-terminus assumed
SMILES: CC[C@H](C)[C@H](NC(=O)[C@H](CO)NC(=O)[C@H](Cc1ccc(O)cc1)NC(=O)[C@H](CC(=O)O)NC(=O)[C@H](CO)NC(=O)[C@@H](NC(=O)[C@H](Cc1ccccc1)NC(=O)[C@@H](NC(=O)CNC(=O)[C@H](CCC(=O)O)NC(=O)C(C)(C)NC(=O)[C@H](Cc1ccc(O)cc1)NC)[C@@H](C)O)[C@@H](C)CC)C(=O)N[C@@H](C)C(=O)N[C@@H](CC(C)C)C(=O)N[C@@H](CC(=O)O)C(=O)N[C@@H](CCCNC(=N)N)C(=O)NC(C)(C)C(=O)N[C@@H](CCCCNC(=O)COCCOCCNC(=O)COCCOCCNC(=O)CC[C@H](NC(=O)CC[C@H](NC(=O)CCCCCCCCCCCCCCCCC(=O)O)C(=O)O)C(=O)O)C(=O)N[C@@H](CCC(N)=O)C(=O)NC(C)(C)C(=O)N[C@@H](CC(=O)O)C(=O)N[C@@H](Cc1ccccc1)C(=O)N[C@H](C(=O)N[C@@H](CC(N)=O)C(=O)N[C@@H](Cc1c[nH]c2ccccc12)C(=O)N[C@@H](CC(C)C)C(=O)N[C@@H](CC(C)C)C(=O)N[C@@H](C)C(=O)N[C@@H](CCC(N)=O)C(=O)N[C@@H](CCCNC(=N)N)C(=O)NCC(=O)O)C(C)C
B2: Compound No. 46 (peptide)
peptide: [NMeY][Aib]EGTFISDYSIALDR[Aib]K(2OEGgEgE‑C18 diacid)Q[Aib]NFVNWLLAQSG-OH
modifications: N-terminus assumed
SMILES: CC[C@H](C)[C@H](NC(=O)[C@H](CO)NC(=O)[C@H](Cc1ccc(O)cc1)NC(=O)[C@H](CC(=O)O)NC(=O)[C@H](CO)NC(=O)[C@@H](NC(=O)[C@H](Cc1ccccc1)NC(=O)[C@@H](NC(=O)CNC(=O)[C@H](CCC(=O)O)NC(=O)C(C)(C)NC(=O)[C@H](Cc1ccc(O)cc1)NC)[C@@H](C)O)[C@@H](C)CC)C(=O)N[C@@H](C)C(=O)N[C@@H](CC(C)C)C(=O)N[C@@H](CC(=O)O)C(=O)N[C@@H](CCCNC(=N)N)C(=O)NC(C)(C)C(=O)N[C@@H](CCCCNC(=O)COCCOCCNC(=O)COCCOCCNC(=O)CC[C@H](NC(=O)CC[C@H](NC(=O)CCCCCCCCCCCCCCCCC(=O)O)C(=O)O)C(=O)O)C(=O)N[C@@H](CCC(N)=O)C(=O)NC(C)(C)C(=O)N[C@@H](CC(N)=O)C(=O)N[C@@H](Cc1ccccc1)C(=O)N[C@H](C(=O)N[C@@H](CC(N)=O)C(=O)N[C@@H](Cc1c[nH]c2ccccc12)C(=O)N[C@@H](CC(C)C)C(=O)N[C@@H](CC(C)C)C(=O)N[C@@H](C)C(=O)N[C@@H](CCC(N)=O)C(=O)N[C@@H](CO)C(=O)NCC(=O)O)C(C)C
B3: Compound No. 172 (peptide)
peptide: H-Y[Aib]EGTFISDYSI[Aib]LDKIK([AEEA-AEEA-γGlu-C18 diacid])QADFVNWLLAQRG-OH
SMILES: CC[C@H](C)[C@H](NC(=O)[C@H](CCCCN)NC(=O)[C@H](CC(=O)O)NC(=O)[C@H](CC(C)C)NC(=O)C(C)(C)NC(=O)[C@@H](NC(=O)[C@H](CO)NC(=O)[C@H](Cc1ccc(O)cc1)NC(=O)[C@H](CC(=O)O)NC(=O)[C@H](CO)NC(=O)[C@@H](NC(=O)[C@H](Cc1ccccc1)NC(=O)[C@@H](NC(=O)CNC(=O)[C@H](CCC(=O)O)NC(=O)C(C)(C)NC(=O)[C@@H](N)Cc1ccc(O)cc1)[C@@H](C)O)[C@@H](C)CC)[C@@H](C)CC)C(=O)N[C@@H](CCCCNC(=O)COCCOCCNC(=O)COCCOCCNC(=O)CC[C@H](NC(=O)CCCCCCCCCCCCCCCCC(=O)O)C(=O)O)C(=O)N[C@@H](CCC(N)=O)C(=O)N[C@@H](C)C(=O)N[C@@H](CC(=O)O)C(=O)N[C@@H](Cc1ccccc1)C(=O)N[C@H](C(=O)N[C@@H](CC(N)=O)C(=O)N[C@@H](Cc1c[nH]c2ccccc12)C(=O)N[C@@H](CC(C)C)C(=O)N[C@@H](CC(C)C)C(=O)N[C@@H](C)C(=O)N[C@@H](CCC(N)=O)C(=O)N[C@@H](CCCNC(=N)N)C(=O)NCC(=O)O)C(C)C
B4: Compound No. 156 (peptide)
peptide: Y[Aib]EGTFISDYSIALDK[Aib]AQRK([AEEA-AEEA-γGlu-γGlu-C18 diacid])FVEWLLAQRG-OH
modifications: N-terminus assumed
SMILES: CC[C@H](C)[C@H](NC(=O)[C@H](CO)NC(=O)[C@H](Cc1ccc(O)cc1)NC(=O)[C@H](CC(=O)O)NC(=O)[C@H](CO)NC(=O)[C@@H](NC(=O)[C@H](Cc1ccccc1)NC(=O)[C@@H](NC(=O)CNC(=O)[C@H](CCC(=O)O)NC(=O)C(C)(C)NC(=O)[C@@H](N)Cc1ccc(O)cc1)[C@@H](C)O)[C@@H](C)CC)C(=O)N[C@@H](C)C(=O)N[C@@H](CC(C)C)C(=O)N[C@@H](CC(=O)O)C(=O)N[C@@H](CCCCN)C(=O)NC(C)(C)C(=O)N[C@@H](C)C(=O)N[C@@H](CCC(N)=O)C(=O)N[C@@H](CCCNC(=N)N)C(=O)N[C@@H](CCCCNC(=O)COCCOCCNC(=O)COCCOCCNC(=O)CC[C@H](NC(=O)CC[C@H](NC(=O)CCCCCCCCCCCCCCCCC(=O)O)C(=O)O)C(=O)O)C(=O)N[C@@H](Cc1ccccc1)C(=O)N[C@H](C(=O)N[C@@H](CCC(=O)O)C(=O)N[C@@H](Cc1c[nH]c2ccccc12)C(=O)N[C@@H](CC(C)C)C(=O)N[C@@H](CC(C)C)C(=O)N[C@@H](C)C(=O)N[C@@H](CCC(N)=O)C(=O)N[C@@H](CCCNC(=N)N)C(=O)NCC(=O)O)C(C)C
B5: Compound No. 181 (peptide)
peptide: Me-Y[Aib]EGTFISDYSIALDR[Aib]HQQ[E∗]FV[K∗]WLLAQK([AEEA-AEEA-γGlu-C18 diacid])PSSGAPPPS-NH2
modifications: not fully specified (residue 1); reading uncertain; also: E* at 21 and K* at 24 marked, meaning not given here

What follows are binders tested against full-length human GLP-1R with an N-terminal FLAG tag (human, UniProt P43220 24-463) (assay: cell-based or functional assay).

Binder	Human GLP1R cAMP EC50, HEK293T [pM]
B1	107000
B2	105000
YXEGTFISDYSIXXDRXAQXDFVNWLLAQSPSSGAPPPS (N-methyl Tyr 1; Aib at 2,13,17,20; Lys(G5-C18 diacid) at 14; C-terminal OH) [Compound No. 47]	148000
YXEGTFISDYSIXXDRXAQXDFVNWLLAQSPSSGAPPPS (N-methyl Tyr 1; Aib at 2,13,17,20; Lys(G5-C18 diacid) at 14; C-terminal NH2) [Compound No. 48]	87100
YXEGTFISDYSIALDRXAQXDFVNWLLAQRPSSGAPPPS (N-methyl Tyr 1; Aib at 2,20; Lys(G5-C18 diacid) at 17; C-terminal OH) [Compound No. 51]	14800

What follows are binders tested against full-length human GLP-1R with an N-terminal FLAG tag, overexpressed on HEK-293T cells (human, UniProt P43220 24-463) (assay: cell-based or functional assay).

Binder	Human GLP1R cAMP EC50, HEK293T [pM]
[NMeY][Aib]EGTFISDYSIALDR[Aib]AQ[Aib]K([AEEA-AEEA-γGlu-γGlu-C18 diacid])FVNWLLAQRG-OH [Compound No. 213]	40700
H-Y[Aib]EGTFISDYSIALDKIK([AEEA-AEEA-γGlu-C18 diacid])Q[Aib]DFVEWLLAQRG-OH [Compound No. 160]	537000
YXEGTFISDYSIAXDKAAQQXFVEWLLAQRG (N-terminus H; Aib at 2, 14; Km at 21 = Lys(2OEGgEgE-C18DA); C-terminus OH) [Compound No. 157]	437000
YXEGTFISDYSIAXDKAAQAXFVEWLLAQRG (N-terminus H; Aib at 2, 14; Km at 21 = Lys(2OEGgEgE-C18DA); C-terminus OH) [Compound No. 158]	339000
B3	93300
[NMeY][Aib]EGTFISDYSI[Aib]LDR[Aib]AQ[Aib]K([AEEA-AEEA-γGlu-γGlu-C20 diacid])FVNWLLAQRG-OH [Compound No. 159]	11700
YXEGTFISDYSIAMDKIHQQDFVNWLLAQXGKKNDWKHNITQ (N-TER cell blank; Aib at 2; Km at 30 = Lys(2OEGgE-C18DA); C-terminus OH) [Compound No. 189]	219000
H-Y[Aib]EGTFISDYSIALDKAK([AEEA-AEEA-γGlu-C18 diacid])Q[Aib]DFVEWLLAQRG-OH [Compound No. 161]	85100
B4	10200

The binders below were run against T1, full-length human GIPR with an N-terminal FLAG tag, overexpressed on HEK-293T cells (human, UniProt P48546 22-466) (assay: cell-based or functional assay).
T1 sequence (looked up): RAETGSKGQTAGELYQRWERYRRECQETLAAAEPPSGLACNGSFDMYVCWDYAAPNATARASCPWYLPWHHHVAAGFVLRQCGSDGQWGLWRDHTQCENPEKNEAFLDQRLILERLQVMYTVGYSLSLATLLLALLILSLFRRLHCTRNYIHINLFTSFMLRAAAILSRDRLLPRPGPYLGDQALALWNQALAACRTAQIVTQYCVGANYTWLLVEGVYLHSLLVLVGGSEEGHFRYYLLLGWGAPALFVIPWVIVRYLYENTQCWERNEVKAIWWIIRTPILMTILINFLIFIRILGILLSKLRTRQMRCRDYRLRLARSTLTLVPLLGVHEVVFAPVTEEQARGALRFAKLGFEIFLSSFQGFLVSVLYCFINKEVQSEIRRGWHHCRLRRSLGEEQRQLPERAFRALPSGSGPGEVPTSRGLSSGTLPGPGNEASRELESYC

Binder	Human GIPR cAMP EC50, HEK293T [pM]
[NMeY][Aib]EGTFISDYSI[Aib]LDK[Aib]AQ[Aib]K([AEEA-AEEA-γGlu-γGlu-C18 diacid])FVNWLLAQRG-OH [Compound No. 211]	0.5
H-Y[Aib]EGTFISDYSIALDKIK([AEEA-AEEA-γGlu-C18 diacid])Q[Aib]DFVEWLLAQRG-OH [Compound No. 160]	0.3
YXEGTFISDYSIAXDKAAQQXFVEWLLAQRG (N-terminus H; Aib at 2, 14; Km at 21 = Lys(2OEGgEgE-C18DA); C-terminus OH) [Compound No. 157]	0.3
YXEGTFISDYSIAXDKAAQAXFVEWLLAQRG (N-terminus H; Aib at 2, 14; Km at 21 = Lys(2OEGgEgE-C18DA); C-terminus OH) [Compound No. 158]	0.5
Me-Y[Aib]EGTFISDYSI[Aib]LDR[Aib]AQ[Aib]KFVNWLLAQRG-OH (not fully specified (residues 1, 21)) [Compound No. 209]	0.4
[NMeY][Aib]EGTFISDYSI[Aib]LDR[Aib]AQ[Aib]K([AEEA-AEEA-γGlu-γGlu-C20 diacid])FVNWLLAQRG-OH [Compound No. 159]	0.9
[NMeY][Aib]EGTFISDYSI[Aib]LDK[Aib]AQ[Aib]K([AEEA-AEEA-γGlu-γGlu-C18 diacid])FVNWLLAQRG-OH [Compound No. 220]	0.5
H-Y[Aib]EGTFISDYSIALDKAK([AEEA-AEEA-γGlu-C18 diacid])Q[Aib]DFVEWLLAQRG-OH [Compound No. 161]	0.1
B4	1.3
B5	0.4
[NMeY][Aib]EGTFISDYSIAEDRKHQ[Aib]NFVNWLLAQK([AEEA-AEEA-γGlu-C18 diacid])PSSGAPPPS-NH2 (also: E* at 14 and K* at 17 marked * (not explained)) [Compound No. 184]	0.5

These binders were tested against T2, full-length human GIPR with an N-terminal FLAG tag (human, UniProt P48546 22-466) (assay: cell-based or functional assay).
T2 sequence (looked up): T1 sequence (looked up)

Binder	Human GIPR cAMP EC50, HEK293T [pM]
B1	0.6
B2	0.3
YXEGTFISDYSIXXDRXAQXDFVNWLLAQSPSSGAPPPS (N-methyl Tyr 1; Aib at 2,13,17,20; Lys(G5-C18 diacid) at 14; C-terminal OH) [Compound No. 47]	0.8
YXEGTFISDYSIXXDRXAQXDFVNWLLAQSPSSGAPPPS (N-methyl Tyr 1; Aib at 2,13,17,20; Lys(G5-C18 diacid) at 14; C-terminal NH2) [Compound No. 48]	0.7
YXEGTFISDYSIALDRXAQXDFVNWLLAQRPSSGAPPPS (N-methyl Tyr 1; Aib at 2,20; Lys(G5-C18 diacid) at 17; C-terminal OH) [Compound No. 51]	0.6
